Eight molecules from US20170129954A1 (PROTHENA BIOSCIENCES, published 2017) can be followed below.

Assay [1] concerns the target T1, human MCAM domain 1 (amino acids 19-129) hFc (human, UniProt P43121 19-129).
T1 construct: One of the various MCAMhFc domains captured on anti-human IgG Fc biosensors; also called MCAMhFc domain; not shown: human IgG Fc (hFc)
T1 sequence: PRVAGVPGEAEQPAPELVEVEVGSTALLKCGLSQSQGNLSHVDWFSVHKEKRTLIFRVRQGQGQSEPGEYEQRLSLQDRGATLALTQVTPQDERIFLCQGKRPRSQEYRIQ
As to the kind of experiment: ForteBio BLI, MCAMhFc domains on anti-human IgG Fc biosensors. An excerpt: (§1) The following protocol was used: ForteBio anti-human IgG Fc biosensors were used to immobilize various MCAMhFc domains including full length MCAMhFc protein on to biosensor surface. […] After loading these samples into a black 96 well plate, the Octet Red was programmed as follows: 60 seconds for baseline #1; 180 seconds for loading various domains; 60 seconds for baseline #2; 180 seconds for association of antibody to domain; and 240 seconds for dissociation of antibody from domain.
(§2) 1. MCAMhFc final concentration @ 5 ug/ml [0329] […] 3. ForteBio anti-human IgG Fc Capture (AHC) biosensors for kinetics experiments, cat #18-5060 [0331] 4. Block 96 well plate from Greiner Bio-one, cat #655209 [0332] 5. ForteBio Octet Red machine [0333] 6. Fresh tissue culture medium, DMEM with 20% FCS, was used as buffer for dilution The results from these analyses are as follows.

Assay [2] has as its target T2, human MCAM, full length, expressed on transfected cells (human, UniProt P43121 24-646).
T2 construct: also called CD146; MUC18
T2 chain: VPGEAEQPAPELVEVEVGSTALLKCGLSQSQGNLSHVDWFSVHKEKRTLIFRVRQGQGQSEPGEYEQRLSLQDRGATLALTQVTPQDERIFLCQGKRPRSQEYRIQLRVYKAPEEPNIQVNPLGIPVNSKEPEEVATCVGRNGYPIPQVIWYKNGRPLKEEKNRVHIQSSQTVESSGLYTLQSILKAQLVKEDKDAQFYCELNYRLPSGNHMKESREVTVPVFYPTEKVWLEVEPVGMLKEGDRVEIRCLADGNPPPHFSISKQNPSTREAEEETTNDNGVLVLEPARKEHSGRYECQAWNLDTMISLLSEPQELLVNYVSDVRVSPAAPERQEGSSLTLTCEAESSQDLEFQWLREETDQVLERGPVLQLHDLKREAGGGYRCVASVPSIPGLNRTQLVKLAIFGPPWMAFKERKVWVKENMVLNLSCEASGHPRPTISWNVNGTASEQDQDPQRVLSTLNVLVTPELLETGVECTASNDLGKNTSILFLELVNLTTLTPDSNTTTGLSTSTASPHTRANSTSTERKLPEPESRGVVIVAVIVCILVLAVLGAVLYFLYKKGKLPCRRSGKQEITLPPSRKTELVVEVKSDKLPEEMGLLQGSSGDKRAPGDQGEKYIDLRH
As to the kind of experiment: flow cytometry, blocking of recombinant human laminin 411 (20 ug/ml) binding to CHO cells expressing human MCAM. Here is the method: The 87 independent mouse fusion clones and 26 independent rat fusion clones described in Example 1 above as being capable of (i) binding to human MCAM, and (ii) blocking the interaction between human MCAM and the α-4 chain of laminin were further characterized as follows. First, IC50 quantitation for the ability of the monoclonal antibody to block the binding of human MCAM to the α-4 chain of laminin was determined as follows. CHO cells expressing human MCAM were incubated with an anti-human MCAM antibody (at various concentrations) for 30 minutes at 4 degrees Celsius. […] Unbound laminin was then washed away, and the laminin bound to the surface of the cells was detected with fluorescently labeled anti-laminin antibodies. After washing, the amount of laminin bound to the surface was detected by flow cytometry, and IC50s were calculated based on the mean fluorescent intensity.
Amino acid and nucleic acid sequences of the heavy and light chains of these antibodies, and their hypervariable regions, are provided in SEQ ID NOs:29-92. […] As such, each of these specific monoclonal antibodies was very capable of binding to human MCAM and inhibiting the interaction of cell-expressed human MCAM with its α-4 laminin binding ligand.

Assay [3] deals with T3, human MCAM domain 2 (amino acids 139-242) hFc (human, UniProt P43121 139-242).
T3 construct: One of the various MCAMhFc domains captured on anti-human IgG Fc biosensors; also called MCAMhFc domain; not shown: human IgG Fc (hFc)
T3 sequence: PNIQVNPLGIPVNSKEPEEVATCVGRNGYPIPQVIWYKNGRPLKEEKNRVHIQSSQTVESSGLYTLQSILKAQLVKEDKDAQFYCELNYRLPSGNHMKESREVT
Nature of the assay: ForteBio BLI, MCAMhFc domains on anti-human IgG Fc biosensors.
From the text: as §1, §2

Assay [4] addresses T4, combination of human MCAM domains 1 and 2 (amino acids 19-242) hFc (human, UniProt P43121 19-242).
T4 construct: One of the various MCAMhFc domains captured on anti-human IgG Fc biosensors; also called combination of domains 1 and 2; MCAMhFc domain; not shown: human IgG Fc (hFc)
T4 sequence: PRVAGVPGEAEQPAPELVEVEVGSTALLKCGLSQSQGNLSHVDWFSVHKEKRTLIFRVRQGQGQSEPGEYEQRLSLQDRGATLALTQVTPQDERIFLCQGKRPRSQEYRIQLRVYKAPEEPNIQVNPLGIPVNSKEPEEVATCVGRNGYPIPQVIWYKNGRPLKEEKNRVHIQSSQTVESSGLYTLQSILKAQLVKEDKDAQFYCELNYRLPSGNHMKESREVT
The description is as above.
From the text: as §1, §2

For assay [5], the target named is T5, human MCAM (antigen of the BLI kinetics in Example 7) (human, UniProt P43121 24-559, limits assumed).
T5 chain: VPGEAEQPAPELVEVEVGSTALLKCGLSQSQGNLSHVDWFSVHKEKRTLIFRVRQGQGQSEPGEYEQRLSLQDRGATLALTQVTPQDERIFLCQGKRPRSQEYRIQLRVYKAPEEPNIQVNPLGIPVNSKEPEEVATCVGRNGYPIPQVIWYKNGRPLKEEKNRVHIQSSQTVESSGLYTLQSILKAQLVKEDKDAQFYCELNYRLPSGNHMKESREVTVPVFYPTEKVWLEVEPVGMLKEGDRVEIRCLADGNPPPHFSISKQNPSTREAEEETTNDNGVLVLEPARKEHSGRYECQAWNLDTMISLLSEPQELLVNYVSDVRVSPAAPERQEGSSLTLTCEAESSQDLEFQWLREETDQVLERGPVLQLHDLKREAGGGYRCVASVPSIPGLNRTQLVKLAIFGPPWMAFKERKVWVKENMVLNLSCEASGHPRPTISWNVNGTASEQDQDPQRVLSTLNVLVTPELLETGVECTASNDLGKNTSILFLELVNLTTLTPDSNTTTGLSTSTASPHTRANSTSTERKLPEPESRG
Nature of the assay: BLI, ForteBio Octet QK, apparent KD. From the text:
(§3) Apparent ka, apparent kd and apparent KD are binding kinetic parameters obtained using ForteBio assay formats.

Assay [6] has as its target T5, human MCAM (antigen of the BLI kinetics …). Nature of the assay: BLI, ForteBio Octet QK, apparent ka.
From the text: as §3

Assay [7] shares this target. As to the kind of experiment: BLI, ForteBio Octet QK, apparent kd.
From the text: as §3

A further assay concerns the target laminin α-4 (UniProt Q16363 25-1823). Nature of the assay: FACS on mammalian cells displaying the mutant. An excerpt:
Twenty point mutants based on the structure information and shotgun mutagenesis information were designed and generated.

Numbering of substitutions follows the chain as printed. Numbers in names are those of the source.

Sequence of laminin α-4 (Q16363 25-1823): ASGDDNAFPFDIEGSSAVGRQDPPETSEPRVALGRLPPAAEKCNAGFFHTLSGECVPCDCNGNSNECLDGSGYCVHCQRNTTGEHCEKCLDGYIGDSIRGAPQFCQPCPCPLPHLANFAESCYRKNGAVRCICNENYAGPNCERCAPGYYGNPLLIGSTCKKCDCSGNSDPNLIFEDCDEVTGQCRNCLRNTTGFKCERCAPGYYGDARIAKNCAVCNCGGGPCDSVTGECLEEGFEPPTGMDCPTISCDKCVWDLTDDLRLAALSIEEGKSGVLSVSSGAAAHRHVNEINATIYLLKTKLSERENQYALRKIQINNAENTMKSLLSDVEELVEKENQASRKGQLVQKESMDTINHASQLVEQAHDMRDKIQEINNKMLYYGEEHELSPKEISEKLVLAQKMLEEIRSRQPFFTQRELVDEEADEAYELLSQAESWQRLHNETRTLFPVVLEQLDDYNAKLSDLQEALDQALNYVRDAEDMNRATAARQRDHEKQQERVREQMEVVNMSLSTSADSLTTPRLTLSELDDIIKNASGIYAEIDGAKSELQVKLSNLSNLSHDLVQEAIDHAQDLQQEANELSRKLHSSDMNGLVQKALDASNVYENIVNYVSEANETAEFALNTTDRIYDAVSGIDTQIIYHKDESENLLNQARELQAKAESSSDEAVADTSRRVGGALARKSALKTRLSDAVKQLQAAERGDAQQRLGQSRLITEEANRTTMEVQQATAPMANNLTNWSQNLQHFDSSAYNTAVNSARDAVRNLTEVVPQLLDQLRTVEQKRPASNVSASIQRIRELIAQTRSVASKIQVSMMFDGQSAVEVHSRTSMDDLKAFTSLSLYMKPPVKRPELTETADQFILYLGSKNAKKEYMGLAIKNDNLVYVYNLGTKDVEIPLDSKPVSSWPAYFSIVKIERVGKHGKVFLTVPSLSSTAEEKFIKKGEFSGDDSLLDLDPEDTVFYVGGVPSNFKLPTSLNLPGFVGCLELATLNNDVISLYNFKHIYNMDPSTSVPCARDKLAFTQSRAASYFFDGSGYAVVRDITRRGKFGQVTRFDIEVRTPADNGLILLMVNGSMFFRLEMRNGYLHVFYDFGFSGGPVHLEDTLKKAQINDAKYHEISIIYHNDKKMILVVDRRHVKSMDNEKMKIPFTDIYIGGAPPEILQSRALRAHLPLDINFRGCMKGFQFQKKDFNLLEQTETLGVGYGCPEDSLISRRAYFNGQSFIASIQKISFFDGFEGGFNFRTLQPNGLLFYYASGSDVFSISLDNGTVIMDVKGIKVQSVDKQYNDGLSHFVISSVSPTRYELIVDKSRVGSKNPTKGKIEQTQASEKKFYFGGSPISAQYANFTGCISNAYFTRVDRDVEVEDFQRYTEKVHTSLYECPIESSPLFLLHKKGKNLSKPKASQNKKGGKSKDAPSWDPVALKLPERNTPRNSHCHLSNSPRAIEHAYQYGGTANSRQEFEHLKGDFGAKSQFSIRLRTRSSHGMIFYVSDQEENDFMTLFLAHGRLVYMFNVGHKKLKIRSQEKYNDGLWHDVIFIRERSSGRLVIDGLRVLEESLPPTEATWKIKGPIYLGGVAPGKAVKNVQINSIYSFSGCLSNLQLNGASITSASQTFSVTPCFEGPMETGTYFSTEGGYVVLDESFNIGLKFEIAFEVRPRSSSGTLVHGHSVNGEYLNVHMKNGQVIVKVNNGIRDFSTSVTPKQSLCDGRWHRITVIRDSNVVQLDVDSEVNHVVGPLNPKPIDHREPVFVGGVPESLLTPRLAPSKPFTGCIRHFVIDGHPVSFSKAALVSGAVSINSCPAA

B1: rat anti-human MCAM monoclonal antibody clone 2120.4.19 (antibody, V domains shown)
VH: QVQLKESGPGLVQPSQTLSLTCTVSGFSLTSNGVSWVRQPPGKGLEWIAAISSGGTTYYNSAFKSRLSISRNTSKSQVLLKMNSLQTEDTAMYFCARRYGYGWYFDFWGPGTMVTVSS
VL: DIRMTQSPSLLSASVGDRVTLNCKASQNIYNSLAWYQQKLGEGPKVLIFNANSLQTGIPSRFSGSGSGTDFTLTISSLQPEDFATYFCQQFYSGYTFGAGTKLELK
notes: Rat hybridoma monoclonal antibody
Regarding B1, the binding result in assay [1] is reported as “no binding (tested: 5 ug/ml)”. In addition, the IC50 in assay [2] came out at 0.888 µg/mL.

B2: mouse anti-human MCAM monoclonal antibody clone 1415.1.1 (antibody, V domains shown)
VH: QVQLQQPGAELVQPGAPVKLSCKASGYIFTSYWMNWVKQRPGRGLEWIGRIDPSDSKIHYNQKFKDKATLTVDRSSSTAYIQLGSLTSEDSAVYYCAKEGGLRRGDYAMDYWGQGTSVTVSS
VL: DIVMTQSPATLSVTPGDRVSLSCRASQSISDYLHWYQQKSHESPRLLIKYASQSISGIPSRFSGSGSGSDFTLSINSVEPEDVGVYYCQNGHNFPRTFGGGTKLEIK
notes: Mouse hybridoma monoclonal antibody
As to B2, the binding result in assay [3], in assay [4] and in assay [1] was “no binding (tested: 5 ug/ml)” throughout. Also, the IC50 in assay [2] came out at 0.307 µg/mL.

B3: Chimeric 1749 (antibody, V domains shown)
VH: DVKLVESGGDLVKPGGSLKLSCAASGFTFSSYIMSWVRQTPEKRLEWVATISSGGSSTYYPDSVKGRFTISRDNAKNTLYLQMSSLKSEDTAMYYCTRDDDYDVKVFAYWGQGTLVTVSA
VL: DIVMSQSPSSLAVSAGEKVTMNCKSSRSLLNSRIRKNYLAWYQQKPGQSPKLLIYWASTRESGVPDRFTGSGSGTDFTLTISSVQAEDLAVYYCKQSYNLLTFGAGTKLELK
notes: also called ch1749
As for B3, in assay [5], the Kd stood at 0.226 nM. The kon in assay [6] amounted to 1.94e+06 M⁻¹ s⁻¹. Also, in assay [7], the off-rate constant (koff) stood at 0.000439 s⁻¹.

B4: mouse anti-human MCAM monoclonal antibody clone 1414.1.2 (antibody, V domains shown)
VH: EIQLQQTGPELVKPGASVKISCKASGYSFTDYIMLWVKQSHGKSLEWIGNINPYSGSSGYNLKFKGKATLTVDKSSSTAYMQLNSLTSEDSAVYYCARGKDFAMDYWGQGTSVTVSS
VL: B3 VL with N22S, R27Q, R33S, I34T, Y38F, L100R, L101Y, A105G, L111I
notes: as for B2
Take B4: the binding result in assay [3], in assay [4] and in assay [1] was “no binding (tested: 5 ug/ml)” throughout. Besides, the IC50 in assay [2] came to 0.431 µg/mL.

B5: Human 1749VH3VL3 (Hu1749VHv3 and Hu1749VLv3) (antibody, V domains shown)
VH: B3 VH with D1E, D10G, K13Q, K19R, A120S
VL: DIVMTQSPSSLAVSLGERVTINCKSSRSLLNSRIRKNYLAWYQQKPGQSPKLLIYWASTRESGVPDRFSGSGSGTDFTLTISSLQAEDVAVYYCKQSYNLLTFGQGTKVEIKR
notes: also called hu1749VH3VL3; hu1749H3L3
B5: the Kd in assay [5] is 0.221 nM. Moreover, in assay [6], the kon was 1.99e+06 M⁻¹ s⁻¹. For the same molecule, the koff in assay [7] worked out at 0.00044 s⁻¹.

B6: human MCAM I141A single mutant displayed on mammalian cells (receptor)
chain: T2 chain with I118A
B6: in the assay with laminin α-4, the binding result is given as “no binding”.

B7: rat anti-human MCAM monoclonal antibody clone 2107.4.10 (antibody, V domains shown)
VH: QVQLKESGPGLVQSSQTLSLTCTVSGFSLTSNGVSWVRQPPGKGLEWIAAISSGGSTYYNSAFKSRLSISRNTSKSQVLLKMNSLQTEDTGMYFCARHRPFYFDYWGQGVMVTVSS
VL: DIQVTQSPSLLSASVGDRVTLNCKGSQNIYKSLAWFRLKRGEAPKLLIYDANSLQTGIPSRFSGSGSGTDFTLTITSLQPEDVATYFCQQYYSGYTFGAGTKLELK
notes: as for B1
With B7, the binding result in assay [1] is “no binding (tested: 5 ug/ml)”. The IC50 in assay [2] worked out at 0.29 µg/mL.

B8: mouse anti-human MCAM monoclonal antibody clone 1174.1.3 (antibody, V domains shown)
VH: QIQLVQSGPELKKPGETVKISCKASGYTFTNYGMNWVKQAPGKGLKWMGWINTYTGEPTYADDFKGRFALSLETSASTAYLQINNLKNEDMATYFCARYRYNKYERAMDYWGQGTSVTVSS
VL: DIVLTQSPASLAVSLGQRATISCRASKSVSTSGYSYMYWYQQKPGQPPKLLIYLASNLESGVPARFSGSGSGTDFTLNIHPVEEEDAATYYCQHSRELPFTFGSGTKLEIK
notes: as for B2
With B8, the binding result in assay [3], in assay [4] and in assay [1] was “no binding (tested: 5 ug/ml)” in each case. Also, in assay [2], the IC50 worked out at 0.469 µg/mL.
